The text below walks through data of the supplement of paper PMC11246515.

A short description of this data set: total protein half-life in vivo (active degradation + dilution); higher = more stable protein.
Setting [1] is: E. coli NCM3722 delta-clpP delta-lon delta-hslV, growth: N-lim chemostat, doubling time 6 h.
[2] abbreviates: E. coli NCM3722 delta-clpP, growth: N-lim chemostat, doubling time 6 h.
[3] abbreviates: E. coli NCM3722 delta-hslV, growth: N-lim chemostat, doubling time 6 h.
Setting [4] is: E. coli NCM3722 delta-smpB, growth: N-lim chemostat, doubling time 6 h.
The mark [5] stands for this setting: wild type E. coli NCM3722, growth: C-lim chemostat, doubling time 3 h.
Setting [6] is: wild type E. coli NCM3722, growth: C-lim chemostat, doubling time 6 h.
Where [7] appears, read: wild type E. coli NCM3722, growth: C-lim chemostat, doubling time 12 h.
Where [8] appears, read: wild type E. coli NCM3722, growth: N-lim chemostat, doubling time 6 h.
Where [9] appears, read: wild type E. coli NCM3722, growth: N-lim chemostat, doubling time 12 h.
The mark [10] stands for this setting: wild type E. coli NCM3722, growth: P-lim chemostat, doubling time 6 h.
Where [11] appears, read: wild type E. coli NCM3722, growth: P-lim chemostat, doubling time 12 h.
The mark [12] stands for this setting: E. coli NCM3722 delta-lon, growth: N-lim chemostat, doubling time 6 h.

± gives the standard deviation of the averaged measurements.

As for “MKIGIIGAMEEEVTLLRDKIENRQTISLGGCEIYTGQLNGTEVALLKSGIGKVAAALGATLLLEHCKPDVIINTGSAGGLAPTLKVGDIVVSDEARYHDADVTAFGYEYGQLPGCPAGFKADDKLIAAAEACIAELNLNAVRGLIVSGDAFINGSVGLAKIRHNFPQAIAVEMEATAIAHVCHNFNVPFVVVRAISDVADQQSHLSFDEFLAVAAKQSSLMVESLVQKLAHG [P0AF12]”, the “total protein half-life in vivo” value under setting [1] was determined as 4.9 ± 0.49 h; the “total protein half-life in vivo” value under setting [2] stood at 4.39 ± 0.069 h; the “total protein half-life in vivo” value under setting [3] is 4.42 ± 0.2 h; the “total protein half-life in vivo” value under setting [4] amounted to 5.43 ± 0.68 h; the “total protein half-life in vivo” value under setting [5] was 3.27 ± 0.28 h; the “total protein half-life in vivo” value under setting [6] came out at 6.36 ± 0.19 h. Also, the “total protein half-life in vivo” value reads like this: under setting [7], 12.6 ± 1.4 h; under setting [8], 4.85 ± 0.48 h; under setting [9], 8.24 ± 0.78 h; under setting [10], 5.73 ± 0.097 h; under setting [11], 12.1 ± 0.39 h.
Take “MTTQTVSGRRYFTKAWLMEQKSLIALLVLIAIVSTLSPNFFTINNLFNILQQTSVNAIMAVGMTLVILTSGIDLSVGSLLALTGAVAASIVGIEVNALVAVAAALALGAAIGAVTGVIVAKGRVQAFIATLVMMLLLRGVTMVYTNGSPVNTGFTENADLFGWFGIGRPLGVPTPVWIMGIVFLAAWYMLHHTRLGRYIYALGGNEAATRLSGINVNKIKIIVYSLCGLLASLAGIIEVARLSSAQPTAGTGYELDAIAAVVLGGTSLAGGKGRIVGTLIGALILGFLNNGLNLLGVSSYYQMIVKAVVILLAVLVDNKKQ [P0AGI1]”: the “total protein half-life in vivo” value was determined as 6.66 ± 0.66 h under setting [1]; 6.38 ± 1.3 h under setting [2]; 5.86 ± 0.5 h under setting [3]; 5.86 ± 0.38 h under setting [12]; 6.072 ± 0.021 h under setting [4]; 2.957 ± 0.015 h under setting [5]. Also, the “total protein half-life in vivo” value under setting [6] came to 5.74 ± 0.19 h; the “total protein half-life in vivo” value under setting [7] was 12.5 ± 2.2 h; the “total protein half-life in vivo” value under setting [8] turned out to be 6.28 ± 0.51 h; the “total protein half-life in vivo” value under setting [9] came to 10.5 ± 3.5 h; the “total protein half-life in vivo” value under setting [10] was 5.48 ± 0.19 h; the “total protein half-life in vivo” value under setting [11] was found to be 13.2 ± 1.3 h.
Consider “MKNIRNFSIIAHIDHGKSTLSDRIIQICGGLSDREMEAQVLDSMDLERERGITIKAQSVTLDYKASDGETYQLNFIDTPGHVDFSYEVSRSLAACEGALLVVDAGQGVEAQTLANCYTAMEMDLEVVPVLNKIDLPAADPERVAEEIEDIVGIDATDAVRCSAKTGVGVQDVLERLVRDIPPPEGDPEGPLQALIIDSWFDNYLGVVSLIRIKNGTLRKGDKVKVMSTGQTYNADRLGIFTPKQVDRTELKCGEVGWLVCAIKDIHGAPVGDTLTLARNPAEKALPGFKKVKPQVYAGLFPVSSDDYEAFRDALGKLSLNDASLFYEPESSSALGFGFRCGFLGLLHMEIIQERLEREYDLDLITTAPTVVYEVETTSREVIYVDSPSKLPAVNNIYELREPIAECHMLLPQAYLGNVITLCVEKRGVQTNMVYHGNQVALTYEIPMAEVVLDFFDRLKSTSRGYASLDYNFKRFQASDMVRVDVLINGERVDALALITHRDNSQNRGRELVEKMKDLIPRQQFDIAIQAAIGTHIIARSTVKQLRKNVLAKCYGGDISRKKKLLQKQKEGKKRMKQIGNVELPQEAFLAILHVGKDNK”, for which the “total protein half-life in vivo” value worked out at 5.44 ± 0.33 h under setting [1]; 5.46 ± 0.92 h under setting [2]; 5.24 ± 0.14 h under setting [3]; 5.28 ± 0.43 h under setting [12]; 4.79 ± 0.27 h under setting [4]; 3.03 ± 0.18 h under setting [5]. In addition, the “total protein half-life in vivo” value by setting is: under setting [6], 5.49 ± 0.072 h; under setting [7], 10.2 ± 0.72 h; under setting [8], 4.754 ± 0.043 h; under setting [9], 8.74 ± 0.49 h; under setting [10], 5.851 ± 0.057 h; under setting [11], 12.16 ± 0.1 h.
“MTEIYEQAKHSLQGEDFSSFNYLFAVNKLLSNPVSYDLGRDLIVRALDSRERFSEHTTILKNMVRKSGLFPYLKKEFTSLTPDDLRVLELYRTPFSDGYVFHSMQFHIFDLLKSGQNVVLSAPTSMGKSAIVDSLLGMGTLKRLVLVVPTVALADETRRRLQERFGDRYQIIHHSSQVCHSDQAVYVLTQERVNERDDIVDIDLFVIDEFYKLAFRQLKSGDIDHQDERVIELNIALSKLLKVSRQFYLTGPFVNSIRGLEKLGYPHTFVSTDFNTVALDVKTFGIKANDDKAKLKALGEIAHACVDATIIYCKSPTVAGLVARELIRLGHGTPTENPHVDWVSEEFDADWDYTVALRNGIGLHFGALPRALQQYTADQFNAGKLRFLLCTSTIIEGVNTIAKNVVIYDNRDGTRSIDKFTHGNIKGRAGRMGVHFVGKIFCLEEIPEDNLNQEVDIPLGIQGIDTPINLLASVQPDHLSEFSQDRFDEVFINDRVSIDLVKKHSYFRVEQFEMLQSMFEMMDDNEFSSLVFHWTPATNFLKTFAKIIARLVPHTFSRNGVPVKPTDVMIAKLAGYLSAESYSEYLKNQIDYARQWISEGEKRTLSIALNNDLKLITNTFGYTLPKVLSLMEDVVKHHAVKRGIRSKVDYTHVKLAFESFHLPPGVNALEEIGIPIQTLHRLVDLLEFSDEADVDELSQYLRDTQDIWSRSIGYVDQMFIRRALGIRRH”: the “total protein half-life in vivo” value under setting [1] worked out at 6.27 ± 1.3 h.
Take “MHKAILNSDLIATKAGDVTVYNYDGETREYISTSNEYLAVGVGIPACSCLDAPGTHKAGYAICRSADFNSWEYVPDHRGETVYSTKTGESKEIKAPGDYPENTTTIAPLSPYDKWDGEKWVTDTEAQHSAAVDAAEAQRQSLIDAAMASISLIQLKLQAGRKLTQAETTRLNAVLDYIDAVTATDTSTAPDVIWPELPEA”: the “total protein half-life in vivo” value under setting [2] was determined as 2.37 h; the “total protein half-life in vivo” value under setting [12] turned out to be 1.83 h; the “total protein half-life in vivo” value under setting [4] worked out at 2.04 ± 0.18 h; the “total protein half-life in vivo” value under setting [7] came out at 3.87 h; the “total protein half-life in vivo” value under setting [8] was determined as 3.06 h; the “total protein half-life in vivo” value under setting [9] is 3.07 ± 0.66 h.
